Experimental findings from patent US20030143729A1, “DNA encoding taurine and GABA transporters and uses thereof” (Synaptic Pharmaceutical Corporation, priority 1992, published 2003) are described below.

Substrate in data set [1]: NCCCC(=O)O
Briefly: cells, lysate or membranes. The note with it: other: various concentrations of [3H]GABA, 30 seconds; pH 7.4; 37.0 °C.

Substrate in data set [2]: NCCS(=O)(=O)O
Briefly: cells, lysate or membranes. The note with it: other: various concentrations of [3H]taurine, 30 seconds, pH 7.4.

Several values for one entry are separate records, joined by “and”; a condition that tells them apart may be missing. Identical values can stand only once.

B1: GAT-2 (Rattus norvegicus) (protein)
chain: MDNRVSGTTSNGETKPVCPVMEKVEEDGTLEREQWTNKMEFVLSVAGEIIGLGNVWRFPYLCYKNGGGAFFIPYLIFLFTCGIPVFFLETALGQYTNQGGITAWRKICPIFEGIGYASQMIVSLLNVYYIVVLAWALFYLFSSFTTDLPWGSCSHEWNTENCVEFQKTNNSLNVTSENATSPVIEFWERRVLKISDGIQHLGSLRWELVLCLLLAWIICYFCIWKGVKSTGKVVYFTATFPYLMLVVLLIRGVTLPGAAQGIQFYLYPNITRLWDPQVWMDAGTQIFFSFAICLGCLTALGSYNKYHNNCYRDCVALCILNSSTSFVAGFAIFSILGFMSQEQGVPISEVAESGPGLAFIAYPRAVVMLPFSPLWACCFFFMVVLLGLDSQFVCVESLVTALVDMYPRVFRKKNRREILILIVSVVSFFIGLIMLTEGGMYVFQLFDYYAASGMCLLFVAIFESLCVAWVYGASRFYDNIEDMIGYKPWPLIKYCWLFFTPAVCLATFLFSLIKYTPLTYNKKYTYPWWGDALGWLLALSSMVCIPAWSIYKLRTLKGPLRERLRQLVCPAEDLPQKSQPELTSPATPMTSLLRLTELESNC
For B1, in data set [1], the Km was 4 µM and 8 ± 3 µM.

B2: taurine transporter (rB16a) (Rattus norvegicus) (protein)
chain: MATKEKLQCLKDFHKDILKPSPGKSPGTRPEDEADGKPPQREKWSSKIDFVLSVAGGFVGLGNVWRFPYLCYKNGGGAFLIPYFIFLFGSGLPVFFLEVIIGQYTSEGGITCWEKICPLFSGIGYASIVIVSLLNVYYIVILAWATYYLFQSFQKDLPWAHCNHSWNTPQCMEDTLRRNESHWVSLSAANFTSPVIEFWERNVLSLSSGIDHPGSLKWDLALCLLLVWLVCFFCIWKGVRSTGKVVYFTATFPFAMLLVLLVRGLTLPGAGEGIKFYLYPNISRLEDPQVWIDAGTQIFFSYAICLGAMTSLGSYNKYKYNSYRDCMLLGCLNSGTSFVSGFAIFSILGFMAQEQGVDIADVAESGPGLAFIAYPKAVTMMPLPTFWSILFFIMLLLLGLDSQFVEVEGQITSLVDLYPSFLRKGYRREIFIAIVCSISYLLGLTMVTEGGMYVFQLFDYYAASGVCLLWVAFFECFVIAWIYGGDNLYDGIEDMIGYRPGPWMKYSWAVITPALCVGCFIFSLVKYVPLTYNKVYRYPDWAIGLGWGLALSSMVCIPLVIVILLCRTEGPLRVRIKYLITPREPNRWAVEREGATPFHSRATLMNGALMKPSHVIVETMM
For B2, in data set [2], the Km was found to be 43 ± 6 µM.
